What all share (conditions): protein: recombinant; tags: GST (N-term, pGEX-4T-1); strand 1 has 5' overhang AATT (4 nt) and 3' overhang AGCT (4 nt); strand 2 fully paired
The target of data set [1] is T1, GmPHD4 N domain (Glycine max, UniProt I1M961 1-114).
T1 sequence: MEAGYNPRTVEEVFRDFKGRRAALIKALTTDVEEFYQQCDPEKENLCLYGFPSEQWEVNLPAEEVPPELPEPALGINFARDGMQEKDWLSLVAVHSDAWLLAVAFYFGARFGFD
Description: EMSA; strong; Binding buffer not given (EMSA as in ref. 59); probe annealed in 50 mM NaCl; competitor in ten-fold excess. (In general: A gel shift assay detects complexes by their altered migration in electrophoresis.)

The target of data set [2] is T2, GST-GmPHD6 (Glycine max, UniProt I1L1N8 1-248).
T2 sequence: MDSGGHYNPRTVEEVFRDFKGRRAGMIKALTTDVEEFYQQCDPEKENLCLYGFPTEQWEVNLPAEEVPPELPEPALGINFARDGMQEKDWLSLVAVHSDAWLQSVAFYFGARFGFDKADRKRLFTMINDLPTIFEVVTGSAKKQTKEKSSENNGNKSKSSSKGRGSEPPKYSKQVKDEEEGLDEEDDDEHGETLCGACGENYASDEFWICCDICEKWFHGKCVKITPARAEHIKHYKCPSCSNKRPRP
Description: EMSA; reduced by 10x unlabeled probe; Binding buffer not given (EMSA as in ref. 59); probe annealed in 50 mM NaCl; competitor in ten-fold excess.

The target of data set [3] is T3, GST-GmPHD5 (Glycine max, UniProt Q06A75 1-252).
T3 sequence: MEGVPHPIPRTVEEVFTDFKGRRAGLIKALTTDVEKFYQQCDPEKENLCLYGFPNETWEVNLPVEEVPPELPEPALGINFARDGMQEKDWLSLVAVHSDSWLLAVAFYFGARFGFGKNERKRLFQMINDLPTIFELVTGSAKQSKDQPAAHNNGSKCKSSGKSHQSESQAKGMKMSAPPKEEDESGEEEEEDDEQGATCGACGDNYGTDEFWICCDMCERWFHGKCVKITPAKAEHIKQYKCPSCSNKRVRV
The description is as above.

In data set [4] the target is T4, GmPHD4 NV (Glycine max, UniProt I1M961 1-199).
T4 sequence: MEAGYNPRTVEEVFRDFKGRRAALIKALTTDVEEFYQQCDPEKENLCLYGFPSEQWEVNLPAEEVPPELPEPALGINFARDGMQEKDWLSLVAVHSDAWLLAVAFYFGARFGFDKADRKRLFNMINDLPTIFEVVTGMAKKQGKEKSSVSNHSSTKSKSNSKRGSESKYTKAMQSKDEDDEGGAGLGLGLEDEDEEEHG
The experiment in a line: EMSA; Binding buffer not given (EMSA as in ref. 59); probe annealed in 50 mM NaCl; competitor in ten-fold excess.

B1: 5x GTGGAG probe (dsDNA)
DNA 1: AATTCGGATCCGTGGAGGTGGAGGTGGAGGTGGAGGTGGAGGGTACCGAGCT
DNA 2: CGGTACCCTCCACCTCCACCTCCACCTCCACCTCCACGGATCCG
Consider B1, for which the binding result is listed as “binds” in data set [1], “binds” in data set [2], “binds” in data set [3] and “no binding” in data set [4].
